Experimental data taken from the DeepSol protein solubility set.

Assay: soluble on expression in E. coli; label from the status in PepcDB or PDB records

| Sequence | soluble on expression in E. coli |
| --- | --- |
| MGSDKIHHHHHHENLYFQGMNTIDIAKSYITAIQTGDHATLGSIISPDVIWHQPGNHQFSGTHRGMAVVGPMLGKMMEVSNGTFAISRADDYMASGDWVAITLEFSGQANGVTLKQAGVDLLRIEDGKIVEVRLFSADQTQEDAFWGR | soluble |
| MSSDAISLRAAGPGDLPGLLELYQVLNPSDPELTTQEAGAVFAAMLAQPGLTIFVATENGKPVATATLLIVPNLTRAARPYAFIENVVTLEARRGRGYGRTVVRHAIETAFGANCYKVMLLTGRHDPAVHAFYESCGFVQNKTGFQIRQD | soluble |
| MRFGPVALSAAKGALLAHSRKAPGWTLAKGTRLGDEDLALLAGLGVAEVVVARLDPGDVHEDEAAARVAAVLLGPGLTLGDAFTGRANLFAGGDGLLRLDAARFDRLNALCEGLTVATLPPFAKVAPRQMVATVKIIPFALPETVIAQAEALLAGAPALEVALFRPMRLALIQTHLPETAGKMLDKTASVTAGRMAALGGGLTVDRRCPHDTRALAACLSAVSAEKDVDLIAVAGASAIVDRGDVIPAAITRAGGRVDHLGMPVDPGNLILLGELAGRVVLGLPGCARSPAINGFDWVLDRLCAGLAVGGADLMAMGVGGLLKDTTARTQPRMAAVTHPSPAAPPRLGALVLAAGLSRRMGGVNKLLLDWRGKPLVAHAVDTVLAAGPAAVAVVIGHQGKAVRAALEGRAIALVENPDPGRGLGSSLKRGLAALPADLDGVIVCLGDMPGLTPRLLSRLIAAFAPLEGRAICLPTFGGRRGNPVLFAARFLPEMMEITGDIGARPVIAAHPDQTCEVAMDALAEGASVLMDVDTPEAAKALLSAGGLEHHHHHH | not soluble |
| MDQVVVFQKMFEQVRKEQNFSWFYSELKHHRIAHYIYYLATDNIRIITHDDTVLLLRGTRNLLKVSTTKNPAKIKEAALLHICGKSTFREYCSTLAGAGVFRWVTDVNHNKRSYYAIDNTLLYIEDVENNKPLI | not soluble |
| MFPNSILGHPPFTPNHQQHNNFFTLSPTVYSHQQLIDAQFNFQNADLSRAVSLQQLTYGNVSPIQTSASPLFRGRKRLSDEKNLPLDGKRQRFHSPHQEPTVVNQIVPLSGERRYSMPPLFHTHYVPDIVRCVPPFREIAFLEPREITLPEAKDKLSQQILELFETCQQQISDLKKKELCRTQLQREIQLLFPQSRLFLVGSSLNGFGTRSSDGDLCLVVKEEPCFFQVNQKTEARHILTLVHKHFCTRLSGYIERPQLIRAKVPIVKFRDKVSCVEFDLNVNNIVGIRNTFLLRTYAYLENRVRPLVLVIKKWASHHQINDASRGTLSSYSLVLMVLHYLQTLPEPILPSLQKIYPESFSPAIQLHLVHQAPCNVPPYLSKNESNLGDLLLGFLKYYATEFDWNSQMISVREAKAIPRPDGIEWRNKYICVEEPFDGTNTARAVHEKQKFDMIKDQFLKSWHRLKNKRDLNSILPVRAA | not soluble |
| MSTTGSAPLNLREWTAPEKLLPNGSPLVPVDARGADWHGIELGELDLRGAKLCRCDLRGTDLSHCQLDGADLRLARYDSQTVVPVGFDLSNSGAVGPGAKLNGVYLNSSDLRGMDLRGSMLLGSYLSGADLSGAILDGVSLAGSDLRSSTMRGAMCRGTRFGTCELDMADLRGANLEGAVLETVESIRGADFSLCTGLGAQIDALLSRSVAELDCWNPLTRSTTRDSLESLRAARSD | not soluble |
| MSLGAYLSSPKTNKESLDGGNLELDPSRYGLSCMQGWRKNMEDAHICYNNLKFNEIEEDVSIYGVFDGHGGPNVSKWISYNFRRIFIRCLKEANAGETGEDDCNGVYSSEELRLFENYYSNDYEDNIAYSCGSTALVAVILKGYLIVANAGDSRAIVCFNGNSLGMSTDHKPHLQTEEARIKKAGGYIANGRVDGNLNLTRAIGDLHYKRDPFLPQKDQKISAFPEITCVTLTPEDEFLFLACDGIWDCKDGQDVVGFVKTRLEKFEEIPDDPNNSLDNTENSEHMNTNNNSDQNEKLKSEEGHHHHHH | soluble |
| MGSSHHHHHHSSGLVPRGSHMTAEEMKATESGAQSAPLPMEGVDISPKQDEGVLKVIKREGTGTEMPMIGDRVFVHYTGWLLDGTKFDSSLDRKDKFSFDLGKGEVIKAWDIAIATMKVGEVCHITCKPEYAYGSAGSPPKIPPNATLVFEVELFEFKGEDLTEEEDGGIIRRIQTRGEGYAKPNEGAIVEVALEGYYKDKLFDQRELRFEIGEGENLDLPYGLERAIQRMEKGEHSIVYLKPSYAFGSVGKEKFQIPPNAELKYELHLKSFEKAKESWE | soluble |
| MGSDKIHHHHHHMAIGLSTYAFFWRASSRVPNPLGLAAMLEQTAESGAGVFQICDYAAVEALSPAELEKLRQRAVDLGIQLELGTRGLATDHLTRYLTMARALDVRFIRTMFNSATHKPTQDEALALLRCVLPEFEQYNIQLGLETYEQVKTRDVLAVVDAIDSPALGICLDPGNCVAALEYPHEVIELTASRVVNLHIKDFAFARQEGWVGFTYSGCLLGTGLLDYDALHQTIRPNERNINQIVEHWLPWQASAEETCRLEDAWTRHSLNYLYTRNPYANRSSHIL | not soluble |
| MSASVSDPYEQMPAAPTDDDLEDKPEADKKALLNQVFKSLKRAQDLFYHDYAQPPPMPEENDSLIRSMKRKHEYGNVIKKVEEMKVRRENEMLALPTSQPMHGTGSVIASAGTPLAITDGSGKLVNQQQGSAKSGTLLPLVPLGNSSKGEDNTTRSLLPSKAPMMMKPKWHAPWKLYRVASGHTGWVRAVDVEPGNQWFASGGADRIIKIWDLASGQLKLSLTGHISSVRAVKVSPRHPFLFSGGEDKQVKCWDLEYNKVIRHYHGHLSAVQALSVHPSLDVLVTCARDSTARVWDMRTKAQVHCFAGHTNTVADVVCQSVDPQVITASHDATVRLWDLAAGRSMCTLTHHKKSVRALTIHPRLNMFASASPDNIKQWKLPKGEFMQNLSGHNAIINTLSSNDDGVVVSGADNGSLCFWDWRSGFCFQKIQTKPQPGSIESEAGIYASCFDKTGLRLITAEADKTIKMYKEDDEATEESHPIVWRPEIVKKKAY | not soluble |
| MSATSATNFAVQTHPVKAPDEEYFFEGAEKLLELWFCSSTQNETRSLRIIPREEIDAMLDIARCKILHSKHNESIDSYVLSESSLFISDNRVILKTCGTTRLLAALPVIMQLAGAYAGLDQVQSVYYSRKNFLRPDLQPSLHKNFDAEVEYLDSFFVDGHAYCLGSLKQDRWYLYTFHREVEFPAHKQPDHTLEILMSDLDEEVLHKFTKDYAVDGNDCFMRAGIDKIIPAGADVHDELFDPCGYSMNAYMNDTDQYATIHVTPEKAFSFASFETNQDLVCLYSQTRKVLQCFRPNKILMTVFANDISEKGKDAQQQLWDRELPGYRRTNVQFVRLETETLVYAHFVRKASTGQDSSSSDEDDGERSD | not soluble |
| MVDVVMAPCSPVECRTAVVIDVLRATSTIVTALSNGASGVIPVKTIEEALEKKKEGVLICGERNAQKPKGFNLGNSPLEYRKEKISGKTIVLTTTNGTQVIEKIRSEEIIAASFLNLSAVVEYLKSKEDILLVCAGTNGRFSLEDFLLAGAIVKRLKRNDLGDGAHAAERYFESVENTREEIKKHSSHAKRLISLGFENDIEFCTTEDLFKTVPALVNGVFILKEFP | soluble |
| MPAKERFFGFHPCKLVEQVEDCVRDLLEDALDGLETSLFRECALAFDALQENAVTSEHEHAKRLLLQQGLMRLRDALFTAFYDQMDRLQVYLLRNVFHIPPGLRIPNVNTSEDLVENWEQALGIDPSSVQIDANAEDEHAVDQELVALRQSLRVARQRLQRLCRERSVLEGAFHRLEGALQSRLASTLIPTEPEDPSGDCDALAKQVVTIARAVSELEAVVRSCRDQFLGDRSSAASGGAPPSGTVPAAAGGSDVGAQGALVRPPLELERIFDAHTKATRVDSLDAVDALRRALHRSC | not soluble |
| MAKDDVIEVEGTVLETLPNAMFKVELENGHVVLAHVSGKIRMNFIRILPGDKVTVELSPYDLNRGRITYRFK | not soluble |
| MKAIIVKPPNAGVQVKDVDEKKLDSYGKIKIRTIYNGICGADREIVNGKLTLSTLPKGKDFLVLGHEAIGVVEESYHGFSQGDLVMPVNRRGCGICRNCLVGRPDFCETGEFGEAGIHKMDGFMREWWYDDPKYLVKIPKSIEDIGILAQPLADIEKSIEEILEVQKRVPVWTCDDGTLNCRKVLVVGTGPIGVLFTLLFRTYGLEVWMANRREPTEVEQTVIEETKTNYYNSSNGYDKLKDSVGKFDVIIDATGADVNILGNVIPLLGRNGVLGLFGFSTSGSVPLDYKTLQEIVHTNKTIIGLVNGQKPHFQQAVVHLASWKTLYPKAAKMLITKTVSINDEKELLKVLREKEHGEIKIRILWE | soluble |
| SMTTTTTTISQHNFYGAGDSETCISIIENLKEEYGLFVWPCSVILAEYVWQHRSRFRDSSILELGAGTSLPGLVAAKVGANVTLTDDATKPEVLDNMRRVCELNKLNCNVLGLTWGVWDAPILDLRPNIILGADVLYDSSGSFHLFLFWVLAFSFSPCE | soluble |
| MTPILTDRPALARHRTRACRAPALFLHEEAAREVEERLSEVNRRFTAPAVVTAFPEVWRDRLPNARIVTDAEELALDPGAHDLVIHALAMHWSNDPVGQLVQSRRALRPDGLFLGLLFGGRTLSELRIALAEAEAAVTGGLSPRVLPMAEIRDLGALLQRAGFALPVADSLVREVRYRDTLHLMRDLRAMGETNALEARLRRPSRRALFAEAEARYPRRADDRIVASFEIICLTGWAPHESQQKPLRPGSAARSLAEALAAARKDGPGDG | not soluble |
| WWYEGYRPNAGWALTDKPTYRDQQMQDKLDALSLYDILEREIIPLYYDKEDKSYSEGWIRYIRRSMMYIAPHFTMKRMLDDYYDKFYGPLAQRHRSISASSFALASEIADWKQQTATHWDEMRVVRVAATGFGLCLQDNHTMQTLEIEIEKGNLSAELNVELVVISDDNQGGVSLVQTIPLNLSEQSADNRWQKYNVNCSLKNPGLHRVAIRITPHSDLLPHKMDFAYVRWAAIS | not soluble |
| SNANFNRFTQRAKKAIDLAFESAKSLGHNIVGSEHILLGLLREEEGIAAKVLSKVGFTEAYLEGKIVDMEGKGEEISEDIVLSPRSKQILELSGMFANKLKTNYIGTEHILLAIIQEGEGIANKILNYAGVNDRTLAQLTIDMMG | soluble |
| MSLDKSLLKIVTNETGVATTTVEKVIALLDEGNTVPFIARYRKEVTGGLDEVKIKSIQDKWNYVVNLSERKQEVLRIIEEQGKLTKELENDIKAATQLQRVEDLYRPYKQKRRTRATIAKEKGLEPLALLVWSQEKDIDLQEEAKQYFSEEHELHTTEDVLQGINDIIAEWISDDAKYRDYIRDITFKRGLIQSEVKKQEDDEKGIYEMYYSYSEAVRSLVSHRILALNRGEKEKILKVQIEPPVEQITSYLEKQTIKNNSNEQITNSLKAAVEDSYKRLIQPSIEREIRNELTEKAEAQAIEVFSVNLKNLLLQPPLKGKVVLSVDPAFRTGCKLAVVDETGKVHHIGVIYPTAPKNDVKGAEKVVLQLIEQFSVELIAIGNGTASRETEQFISDVIRNKELDLPYIIVNEAGASVYSASPLAREEFPDLQVEERSAVSIARRVQDPLAELVKIDPKSIGVGQYQHDVSQKELSGSLSFVVETAVNQVGVNVNTASSSLLQYVSGLSKTVANNMVKQRNEEGKFTNRKQLKKIPRLGAKTYEQAIGFLRIPDGDTILDRTPIHPESYDQTKNLLQMLGYTENDIGSEKLQQDLNNIDKKATAEKLEIGLPTLEDIMEALGKPGRDPRDDFPQPLLKKNVMNMEDLKSGMELQGTVRNVVDFGVFVDIGVKQDGLVHISKMSKQFVKHPMDIASVGDVVTVWVDQVDVQKGRIALTMVGNDEGHHHHHH | soluble |
| MRSVRRREALREWIMAKLYFNYSTMNAGKSTMLLQASYNYQERGMRTLIFTAAFDDRAGVGRVASRIGLSSEARTFDENTDLFAEVAALHAQAPVACVFVDEANFLSEHHVWQLANIADRLNIPVMTYGLRTDFQGKLFPASKELLAIADELREIRTICHCGRKATMVARFDSEGKVVTEGAQIEVGGNGKYVSFCRRHWVETFNCSLEHHHHHH | not soluble |
